# Target: T1, hiR2-FL-K536-T7 (deletion of K536) (human, UniProt Q6PJF5 1-856)
# T1 construct: single amino acid deletion
# T1 sequence: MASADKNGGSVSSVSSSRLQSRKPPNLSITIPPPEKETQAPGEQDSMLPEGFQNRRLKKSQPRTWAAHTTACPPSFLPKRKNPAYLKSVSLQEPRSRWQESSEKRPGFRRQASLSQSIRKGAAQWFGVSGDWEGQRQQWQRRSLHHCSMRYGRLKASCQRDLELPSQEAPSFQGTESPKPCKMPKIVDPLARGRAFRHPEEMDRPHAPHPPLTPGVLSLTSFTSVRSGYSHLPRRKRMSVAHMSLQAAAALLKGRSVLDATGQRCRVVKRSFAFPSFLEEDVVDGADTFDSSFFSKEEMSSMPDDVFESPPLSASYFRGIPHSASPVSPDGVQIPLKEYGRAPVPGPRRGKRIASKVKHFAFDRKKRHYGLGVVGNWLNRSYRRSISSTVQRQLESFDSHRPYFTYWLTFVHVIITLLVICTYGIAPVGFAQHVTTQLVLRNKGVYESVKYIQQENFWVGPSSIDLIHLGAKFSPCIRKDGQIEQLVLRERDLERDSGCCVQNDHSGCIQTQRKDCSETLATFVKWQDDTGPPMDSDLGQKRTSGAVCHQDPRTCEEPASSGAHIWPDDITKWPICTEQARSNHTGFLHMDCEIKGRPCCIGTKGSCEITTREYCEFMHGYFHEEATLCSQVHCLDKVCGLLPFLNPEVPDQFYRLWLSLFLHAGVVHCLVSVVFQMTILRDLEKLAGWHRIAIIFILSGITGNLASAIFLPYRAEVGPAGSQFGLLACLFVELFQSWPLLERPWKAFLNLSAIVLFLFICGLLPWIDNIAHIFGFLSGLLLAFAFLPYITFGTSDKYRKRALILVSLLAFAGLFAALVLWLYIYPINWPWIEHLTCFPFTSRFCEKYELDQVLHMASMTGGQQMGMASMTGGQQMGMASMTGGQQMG
# Assay: FACS, MEF-DKO cells, 3 µg/ml
row,Binder,loss of binding vs wild type
1,"antibody 34 (antibody, V domains shown, mouse IgG, kappa light chain; also called clone #34; purified antibody 34) VH: QVTLKESGPGILQPSQTLSLTCSFSGFSLSTFSLGVGWIRQSSGKGLEWLAHIWWDDEKYYNPALKSRLTISKDTSKNQVFLKIANVDAADTATYYCARAYYSKSYYALDYWGQGTSVTVSS VL: DIQMTQSPSSLSASLGERVSLTCRASQEISGYLSWLQQKPDGTIKRLIYAASTLDSGVPKRFSGSRSGSDYSLAISSLESEDFADYYCLQYANFPFTFGSGTKLEIK",≥ 95%
2,"antibody 5 (antibody, V domains shown, mouse IgG, kappa light chain; also called clone #5; purified antibody 5) VH: QVTLKESGPGILQPSQTLSLTCSFSGFSLSTFGMGVGWIRQPSGKGLEWLAHIWWDDEKYYNSALKSRLTISKATSKNQAFLKIANVDTADTATYYCARISNYGSNYWYFNVWGTGTTVTVSS VL: QVVLTQSPALMSASPGEKVTMTCSAGSSVSCMYWYQQKPGSSPRVLIYDTSNLASGVPARFTGSGSGTSYSLTISRMEAEDAASYYCQQWNSYPLTFGAGTKLELK",≥ 95%
3,"antibody 44 (antibody, V domains shown, mouse IgG, kappa light chain; also called clone #44; purified antibody 44) VH: QVTLKESGPGILQPSQTLSLTCSFSGFSLSTFGMGVGWIRQPSEKGLEWLAHIWWDDDKYYNPALKSRLTISKDTSKNQIFLKITNVDTAETATYYCSRIGNYGSNYWYFDVWGTGTTVTVSS VL: QIVLTQSPAVMSASPGEKVTMTCTASSSVYYMYWYQQTPGSSPRLLIYDTSNLASGVPVRFSGSGSGTSYSLTISRMEAEDAATYYCQQWNTYPLTFGAGTKLELK",≥ 95%
4,"antibody 42 (antibody, V domains shown, mouse IgG, kappa light chain; also called clone #42; purified antibody 42) VH: QVTLKESGPGILQPSQTLSLTCSLSGFSLSTFGRGVGWIRQPSGKGLEWLAHIWWDDEKYYNPALKSRLTISKDTSKNQVFLRIANVDTADTATYYCARIQNYGSNYWYFDVWGTGTTVTVSS VL: LIVLTQSPAIMSASPGEKVTMTCGATSRISYMFWYQQKPGSSPRVLIYDTSNLASGVPVRFSGSGSGTSYSLTISRVEAEDVATYYCQQWNSYPLTFGAGTKLELK",≥ 95%
5,"antibody 43 (antibody, V domains shown, mouse IgG, kappa light chain; also called clone #43; purified antibody 43) VH: QVALKESGPGILQPSQTLSLTCSFSGFSLSTFGMGVGWIRQSSGKGLEWLANIWWDDDKYYNPALKSRLTISKDASKNQAFLKIANVDTADTATYYCARIGNYGSNYWYFDVWGTGTTVTVSS VL: QIVLTQSPAIMSASPGERVTMTCSANSRISYMYWYQQKPGSSPRLLIYDTSNLASGVPVRFSGSGSGTSYSLTISRMEAEDAATYNCQQWSSYPLTFGAGTKLELK",≥ 95%
6,"antibody 22 (antibody, V domains shown, mouse IgG, kappa light chain; also called clone #22; purified antibody 22) VH: QVTLKESGPGILQPSQTLSLTCSFSGFSLSTFGMGVGWIRQPSGKGLEWLAHIWWDDEKYYNSALKSRLTISKATSKNQVFLKIANVDTADTATYYCARISNYGSNYWYFNVWGTGTTVTVSS VL: QVVLTQSPALMSASPGEKVTMTCSAGSSVSYMYWYQQKPGSSPRVLIYDTSNLASGVPARFTGSGSGTSYSLTISRMEAEDAATYYCQQWNSYPLTFGAGTKLELK",≥ 95%
7,"antibody 16 (antibody, V domains shown, mouse IgG, kappa light chain; also called clone #16; purified antibody 16) VH: QVTLKESGPGILQPSQTLSLTCSFSGFSLSTFALGVGWIRQPSGRGLEWLAHIWWDDDKYYNPALKSRLTISKDTSKNHVFLKIANVDTADTATYYCARITTYYYGMDYWGQGTSVTVSS VL: DIVLSQSPATLSVTPGDSVSLFCRASQSIGNHLHWYQQESHASPRLLIKYASQSISGIPSRFSGSGSGTDFTLSINSVETEDFGMYFCQQSYNWPLTFGAGTKLELK",≥ 95%
8,"antibody 3 (antibody, V domains shown, mouse IgG, kappa light chain; also called clone #3; purified antibody 3) VH: QVTLKESGPGILQPSQTLSLTCSFSGFSLTTFAMGIGWVRQPSGKGLEWLAHIWWDGEKYNNPVLKSRLTISKDTSKNQVFLRIANVDTPDTATYYCARISSIYYIIDNWGQGTSVTVSS VL: DIVLTQSPATLSVTPGHSVSLSCRASQSISNNLHWYQKKSHESPRLLIKYVSQSISGIPSRFSGSGSGTDFTLSINSVETEDFGMYFCQQSYNWPLTFGAGTKLELK",≥ 95%
